The source of these data is paper PMC10614411, “Endometrial cancer (EC) derived G3BP1 overexpression and mutant promote EC tumorigenesis and metastasis via SPOP/ERα axis” (Cell Communication and Signaling : CCS, 2023).

The assay concerns the target T1, FLAG-G3BP1 Q392*, bacterially expressed (UniProt Q13283 1-391, Q392*).
T1 construct: The bacterial expression construct is not described in the methods; source: bacterially expressed
The experiment in a line: pull-down; GST fusion protein fixed on glutathione-Sepharose beads, incubated with recombinant FLAG-labeled proteins for 2 h, washed 5 times, Western blot with anti-FLAG. The conditions noted are these: both partners purified. (In general: In western blotting, separated proteins are transferred to a membrane and probed.)

T1 sequence (Q13283 1-391, stated change not applied): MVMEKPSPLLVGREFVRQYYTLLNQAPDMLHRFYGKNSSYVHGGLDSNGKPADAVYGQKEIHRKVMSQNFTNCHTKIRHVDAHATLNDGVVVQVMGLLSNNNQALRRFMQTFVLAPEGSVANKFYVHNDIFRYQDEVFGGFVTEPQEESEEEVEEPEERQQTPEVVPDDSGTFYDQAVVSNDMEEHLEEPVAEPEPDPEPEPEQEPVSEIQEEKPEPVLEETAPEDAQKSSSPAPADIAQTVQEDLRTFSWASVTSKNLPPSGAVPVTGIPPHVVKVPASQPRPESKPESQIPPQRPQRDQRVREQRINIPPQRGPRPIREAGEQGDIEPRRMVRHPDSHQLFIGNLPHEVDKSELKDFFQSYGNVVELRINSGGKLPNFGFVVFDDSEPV

B1: GST-SPOP, bacterially expressed (natural protein, UniProt O43791 1-374, looked up)
chain: MSRVPSPPPPAEMSSGPVAESWCYTQIKVVKFSYMWTINNFSFCREEMGEVIKSSTFSSGANDKLKWCLRVNPKGLDEESKDYLSLYLLLVSCPKSEVRAKFKFSILNAKGEETKAMESQRAYRFVQGKDWGFKKFIRRDFLLDEANGLLPDDKLTLFCEVSVVQDSVNISGQNTMNMVKVPECRLADELGGLWENSRFTDCCLCVAGQEFQAHKAILAARSPVFSAMFEHEMEESKKNRVEINDVEPEVFKEMMCFIYTGKAPNLDKMADDLLAAADKYALERLKVMCEDALCSNLSVENAAEILILADLHSADQLKTQAVDFINYHASDVLETSGWKSMVVSHPHLVAEAYRSLASAQCPFLGPPRKRLKQS
notes: SPOP as a GST fusion protein; The bacterial expression construct is not described in the methods
B1: the binding result is “binds”.
